In patent US20140072613A1, “Compositions and Methods for Treating Cutaneous Scarring” (priority 2012, published 2014):

What was measured:
Assay in all cases: biochemical
Assay type in all cases: biochemical
[1] = target: 266 human kinases (Homo sapiens, UniProt P36888); details: Flt3(h); 100 μM
Description: (§1) Specifically, in these assays, a positively charged substrate is phosphorylated with a radiolabeled phosphate group from an ATP if the kinase is not inhibited by an inhibitor peptide. The positively charged substrate then is attracted to a negatively charged filter membrane, quantified with a scintillation counter, and compared to a 100% activity control.

[2] = target: T1, 266 human kinases (Homo sapiens, UniProt Q06418); details: Rse(h); 100 μM
T1 sequence (Q06418 41-890): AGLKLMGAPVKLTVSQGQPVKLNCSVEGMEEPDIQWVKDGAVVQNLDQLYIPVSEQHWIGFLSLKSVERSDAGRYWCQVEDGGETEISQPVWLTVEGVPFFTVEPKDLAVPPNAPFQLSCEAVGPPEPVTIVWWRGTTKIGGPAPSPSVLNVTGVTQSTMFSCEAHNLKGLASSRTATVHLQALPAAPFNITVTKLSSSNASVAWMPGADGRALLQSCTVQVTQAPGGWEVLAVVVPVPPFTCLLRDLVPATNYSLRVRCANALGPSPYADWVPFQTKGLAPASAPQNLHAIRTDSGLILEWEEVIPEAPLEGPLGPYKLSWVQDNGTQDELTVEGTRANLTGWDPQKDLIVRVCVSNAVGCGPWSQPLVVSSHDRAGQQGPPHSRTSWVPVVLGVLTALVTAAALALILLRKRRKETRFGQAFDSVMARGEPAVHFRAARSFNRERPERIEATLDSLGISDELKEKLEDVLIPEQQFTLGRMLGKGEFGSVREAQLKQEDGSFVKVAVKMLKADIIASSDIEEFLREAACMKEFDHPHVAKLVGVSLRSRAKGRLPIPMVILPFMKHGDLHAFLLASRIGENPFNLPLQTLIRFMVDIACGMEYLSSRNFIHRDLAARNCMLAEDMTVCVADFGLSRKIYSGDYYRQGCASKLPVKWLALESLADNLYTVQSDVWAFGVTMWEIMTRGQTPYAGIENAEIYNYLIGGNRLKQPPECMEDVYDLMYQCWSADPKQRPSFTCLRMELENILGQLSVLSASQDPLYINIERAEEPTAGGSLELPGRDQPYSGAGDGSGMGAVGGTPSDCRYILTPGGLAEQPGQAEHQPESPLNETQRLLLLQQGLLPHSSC
Description: as §1

[3] = target: 266 human kinases (Homo sapiens, UniProt Q9UM73); details: ALK(h); 100 μM
Description: as §1

[4] = target: 266 human kinases (Homo sapiens, UniProt Q07912); details: ACK1(h); 100 μM
Description: as §1

[5] = target: 266 human kinases (Homo sapiens, UniProt Q7KZI7); details: PAR-1Bα(h); 100 μM
Description: as §1

[6] = target: T2, 266 human kinases (Homo sapiens, UniProt Q8TDC3); details: BrSK1(h); 100 μM
T2 sequence (Q8TDC3 1-778): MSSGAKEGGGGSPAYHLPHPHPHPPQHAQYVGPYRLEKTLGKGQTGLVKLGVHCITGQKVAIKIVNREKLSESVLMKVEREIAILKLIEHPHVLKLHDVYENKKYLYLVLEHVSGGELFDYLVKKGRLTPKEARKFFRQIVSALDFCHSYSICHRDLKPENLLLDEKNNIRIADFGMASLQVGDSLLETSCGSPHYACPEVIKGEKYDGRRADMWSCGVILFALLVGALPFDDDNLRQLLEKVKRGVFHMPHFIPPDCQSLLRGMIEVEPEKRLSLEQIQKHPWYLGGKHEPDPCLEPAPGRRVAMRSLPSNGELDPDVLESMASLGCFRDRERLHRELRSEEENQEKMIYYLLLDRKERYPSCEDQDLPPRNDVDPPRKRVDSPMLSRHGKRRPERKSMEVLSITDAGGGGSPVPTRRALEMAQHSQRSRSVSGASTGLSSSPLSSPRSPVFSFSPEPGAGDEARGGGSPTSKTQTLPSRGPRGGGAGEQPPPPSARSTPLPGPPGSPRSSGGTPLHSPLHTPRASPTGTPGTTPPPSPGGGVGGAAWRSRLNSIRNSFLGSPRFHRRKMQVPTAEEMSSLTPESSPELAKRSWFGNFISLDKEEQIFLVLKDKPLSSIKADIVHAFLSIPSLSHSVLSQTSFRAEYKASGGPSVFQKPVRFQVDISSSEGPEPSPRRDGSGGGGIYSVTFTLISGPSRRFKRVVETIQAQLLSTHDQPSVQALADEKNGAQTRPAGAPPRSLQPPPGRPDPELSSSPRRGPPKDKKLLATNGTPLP
Description: as §1

[7] = target: 266 human kinases (Homo sapiens, UniProt P11362); details: FGFR1(h); 100 μM
Description: as §1

[8] = target: 266 human kinases (Homo sapiens, UniProt P51617); details: IRAK1(h); 100 μM
Description: as §1

[9] = target: 266 human kinases (Homo sapiens, UniProt Q9P1W9); details: Pim-2(h); 100 μM
Description: as §1

[10] = target: 266 human kinases (Homo sapiens, UniProt Q15303); details: ErbB4(h); 100 μM
Description: as §1

Sequence of 266 human kinases (Homo sapiens, UniProt Q07912) (Q07912 whole entry): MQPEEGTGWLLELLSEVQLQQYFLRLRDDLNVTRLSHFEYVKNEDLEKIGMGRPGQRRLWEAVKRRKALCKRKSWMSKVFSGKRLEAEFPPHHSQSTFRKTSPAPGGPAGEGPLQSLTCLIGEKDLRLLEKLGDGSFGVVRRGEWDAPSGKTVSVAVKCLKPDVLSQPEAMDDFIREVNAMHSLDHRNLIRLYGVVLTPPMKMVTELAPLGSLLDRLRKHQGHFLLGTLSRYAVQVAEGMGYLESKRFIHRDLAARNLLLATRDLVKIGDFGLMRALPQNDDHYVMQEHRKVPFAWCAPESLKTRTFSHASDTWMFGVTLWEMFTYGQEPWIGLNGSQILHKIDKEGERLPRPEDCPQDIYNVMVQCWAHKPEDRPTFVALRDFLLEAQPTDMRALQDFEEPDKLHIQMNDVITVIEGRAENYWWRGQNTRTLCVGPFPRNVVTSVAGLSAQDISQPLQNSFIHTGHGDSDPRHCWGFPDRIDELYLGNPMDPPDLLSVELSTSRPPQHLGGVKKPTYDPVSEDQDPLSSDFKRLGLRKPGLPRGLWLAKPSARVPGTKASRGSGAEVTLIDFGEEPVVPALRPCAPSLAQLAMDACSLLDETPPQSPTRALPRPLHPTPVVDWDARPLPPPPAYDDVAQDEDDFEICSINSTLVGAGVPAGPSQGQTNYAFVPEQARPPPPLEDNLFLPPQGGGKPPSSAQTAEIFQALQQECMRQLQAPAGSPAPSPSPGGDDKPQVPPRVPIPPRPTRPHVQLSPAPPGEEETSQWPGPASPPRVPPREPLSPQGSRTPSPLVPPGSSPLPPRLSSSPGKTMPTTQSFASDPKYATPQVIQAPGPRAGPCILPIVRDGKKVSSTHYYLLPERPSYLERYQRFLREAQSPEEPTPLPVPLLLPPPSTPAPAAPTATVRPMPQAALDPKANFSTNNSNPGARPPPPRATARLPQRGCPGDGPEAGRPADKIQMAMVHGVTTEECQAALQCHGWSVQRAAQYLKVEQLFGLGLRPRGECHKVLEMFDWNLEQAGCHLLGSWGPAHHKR
Sequence of 266 human kinases (Homo sapiens, UniProt Q9P1W9) (Q9P1W9 whole entry): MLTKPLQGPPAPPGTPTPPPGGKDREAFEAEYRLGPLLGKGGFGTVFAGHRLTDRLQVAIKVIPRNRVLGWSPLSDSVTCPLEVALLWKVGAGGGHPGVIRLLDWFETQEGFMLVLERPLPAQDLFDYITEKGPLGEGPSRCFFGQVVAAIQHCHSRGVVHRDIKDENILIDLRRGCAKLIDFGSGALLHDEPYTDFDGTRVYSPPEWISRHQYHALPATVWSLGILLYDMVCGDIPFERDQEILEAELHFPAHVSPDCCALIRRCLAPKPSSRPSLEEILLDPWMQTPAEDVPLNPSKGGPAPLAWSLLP
Sequence of 266 human kinases (Homo sapiens, UniProt P51617) (P51617 whole entry): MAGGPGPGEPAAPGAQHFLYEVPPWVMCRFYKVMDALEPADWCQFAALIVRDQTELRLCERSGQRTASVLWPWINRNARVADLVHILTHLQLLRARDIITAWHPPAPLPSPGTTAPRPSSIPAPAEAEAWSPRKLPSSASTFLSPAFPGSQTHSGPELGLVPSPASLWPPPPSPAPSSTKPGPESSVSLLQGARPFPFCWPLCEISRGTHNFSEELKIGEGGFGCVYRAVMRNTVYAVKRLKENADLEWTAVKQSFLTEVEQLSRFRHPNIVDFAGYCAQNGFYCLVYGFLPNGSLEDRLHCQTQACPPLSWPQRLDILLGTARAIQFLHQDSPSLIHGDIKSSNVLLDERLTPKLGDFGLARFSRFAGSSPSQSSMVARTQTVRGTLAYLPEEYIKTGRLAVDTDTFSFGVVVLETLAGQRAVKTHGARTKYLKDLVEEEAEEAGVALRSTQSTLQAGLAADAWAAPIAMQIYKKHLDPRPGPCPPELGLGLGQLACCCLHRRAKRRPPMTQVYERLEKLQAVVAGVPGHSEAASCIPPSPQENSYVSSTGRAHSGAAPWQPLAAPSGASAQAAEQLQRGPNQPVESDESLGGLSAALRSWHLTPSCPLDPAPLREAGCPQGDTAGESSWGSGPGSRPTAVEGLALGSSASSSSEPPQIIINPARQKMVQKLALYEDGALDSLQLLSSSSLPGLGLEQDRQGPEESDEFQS
Sequence of 266 human kinases (Homo sapiens, UniProt Q15303) (Q15303 26-1308): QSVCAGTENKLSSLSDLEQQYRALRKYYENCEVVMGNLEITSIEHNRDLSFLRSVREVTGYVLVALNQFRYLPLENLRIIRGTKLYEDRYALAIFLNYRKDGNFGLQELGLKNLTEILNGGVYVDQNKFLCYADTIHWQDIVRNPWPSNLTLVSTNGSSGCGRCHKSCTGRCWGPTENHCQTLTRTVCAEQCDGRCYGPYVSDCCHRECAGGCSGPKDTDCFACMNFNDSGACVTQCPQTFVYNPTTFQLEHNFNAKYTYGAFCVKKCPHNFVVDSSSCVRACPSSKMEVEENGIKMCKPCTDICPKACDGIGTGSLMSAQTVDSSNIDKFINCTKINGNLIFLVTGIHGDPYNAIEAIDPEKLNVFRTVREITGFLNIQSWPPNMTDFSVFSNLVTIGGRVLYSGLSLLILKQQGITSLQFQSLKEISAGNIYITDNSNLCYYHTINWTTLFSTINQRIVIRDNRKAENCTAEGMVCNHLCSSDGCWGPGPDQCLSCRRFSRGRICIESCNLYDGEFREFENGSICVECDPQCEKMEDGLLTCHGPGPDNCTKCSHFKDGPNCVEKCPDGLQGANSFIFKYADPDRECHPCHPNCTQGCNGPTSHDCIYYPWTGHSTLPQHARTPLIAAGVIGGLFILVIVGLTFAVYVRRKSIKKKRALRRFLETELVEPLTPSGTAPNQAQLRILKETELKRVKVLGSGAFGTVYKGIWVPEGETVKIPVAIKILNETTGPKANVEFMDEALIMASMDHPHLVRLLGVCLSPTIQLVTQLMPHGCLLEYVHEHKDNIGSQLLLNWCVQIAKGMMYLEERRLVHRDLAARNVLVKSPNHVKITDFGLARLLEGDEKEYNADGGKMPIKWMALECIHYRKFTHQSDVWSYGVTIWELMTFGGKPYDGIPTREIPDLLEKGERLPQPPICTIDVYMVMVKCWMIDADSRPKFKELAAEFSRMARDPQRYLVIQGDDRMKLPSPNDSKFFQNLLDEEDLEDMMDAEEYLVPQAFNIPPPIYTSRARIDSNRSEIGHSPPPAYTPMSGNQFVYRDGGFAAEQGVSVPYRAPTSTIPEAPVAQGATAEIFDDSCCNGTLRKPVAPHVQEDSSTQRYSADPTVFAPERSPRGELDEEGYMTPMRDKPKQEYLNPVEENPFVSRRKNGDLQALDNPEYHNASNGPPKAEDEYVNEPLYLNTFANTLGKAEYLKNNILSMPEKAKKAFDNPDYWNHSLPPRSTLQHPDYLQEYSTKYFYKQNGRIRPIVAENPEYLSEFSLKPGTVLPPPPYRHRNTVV
Sequence of 266 human kinases (Homo sapiens, UniProt Q9UM73) (Q9UM73 19-1620): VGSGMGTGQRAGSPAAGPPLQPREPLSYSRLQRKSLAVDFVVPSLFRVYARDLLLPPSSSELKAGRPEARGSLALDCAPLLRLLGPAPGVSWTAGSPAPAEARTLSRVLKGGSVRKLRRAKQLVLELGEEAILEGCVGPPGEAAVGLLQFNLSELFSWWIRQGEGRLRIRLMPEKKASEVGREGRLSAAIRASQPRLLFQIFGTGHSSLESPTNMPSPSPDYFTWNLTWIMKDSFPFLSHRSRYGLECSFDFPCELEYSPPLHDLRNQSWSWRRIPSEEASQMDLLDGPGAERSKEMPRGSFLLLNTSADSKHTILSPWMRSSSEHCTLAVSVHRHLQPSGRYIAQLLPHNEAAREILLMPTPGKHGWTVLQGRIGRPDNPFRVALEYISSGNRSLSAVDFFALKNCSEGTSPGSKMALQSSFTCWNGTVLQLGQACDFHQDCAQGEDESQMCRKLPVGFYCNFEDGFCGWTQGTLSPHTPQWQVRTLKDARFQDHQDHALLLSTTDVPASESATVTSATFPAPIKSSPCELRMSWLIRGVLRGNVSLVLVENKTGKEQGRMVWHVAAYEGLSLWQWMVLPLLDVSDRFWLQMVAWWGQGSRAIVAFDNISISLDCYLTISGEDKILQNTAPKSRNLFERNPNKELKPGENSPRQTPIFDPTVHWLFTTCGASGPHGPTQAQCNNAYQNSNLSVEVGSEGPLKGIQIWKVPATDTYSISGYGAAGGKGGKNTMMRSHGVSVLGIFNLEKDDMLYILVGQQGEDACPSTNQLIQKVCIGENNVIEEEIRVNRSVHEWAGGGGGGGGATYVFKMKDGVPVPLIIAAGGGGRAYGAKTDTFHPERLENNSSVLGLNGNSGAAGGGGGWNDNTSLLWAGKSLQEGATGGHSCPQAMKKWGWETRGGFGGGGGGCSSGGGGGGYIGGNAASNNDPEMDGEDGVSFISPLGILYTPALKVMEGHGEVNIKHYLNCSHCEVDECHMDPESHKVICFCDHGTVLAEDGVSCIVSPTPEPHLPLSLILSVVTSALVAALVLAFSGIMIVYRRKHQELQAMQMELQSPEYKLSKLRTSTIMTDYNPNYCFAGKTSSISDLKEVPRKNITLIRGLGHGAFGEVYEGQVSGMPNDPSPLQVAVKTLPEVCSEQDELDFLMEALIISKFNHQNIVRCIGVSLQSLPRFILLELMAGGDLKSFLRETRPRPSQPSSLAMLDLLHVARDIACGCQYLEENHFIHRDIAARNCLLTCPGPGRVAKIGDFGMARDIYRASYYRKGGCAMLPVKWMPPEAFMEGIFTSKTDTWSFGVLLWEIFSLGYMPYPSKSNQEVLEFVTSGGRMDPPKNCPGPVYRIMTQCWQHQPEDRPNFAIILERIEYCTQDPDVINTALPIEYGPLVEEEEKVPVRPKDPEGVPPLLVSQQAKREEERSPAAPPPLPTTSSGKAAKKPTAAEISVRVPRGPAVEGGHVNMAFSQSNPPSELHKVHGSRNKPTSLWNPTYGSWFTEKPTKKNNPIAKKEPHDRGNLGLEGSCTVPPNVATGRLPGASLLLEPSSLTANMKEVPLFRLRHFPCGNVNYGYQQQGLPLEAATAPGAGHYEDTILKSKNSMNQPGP

| Sequence | % activity [1] | % activity [2] | % activity [3] | % activity [4] | % activity [5] | % activity [6] | % activity [7] | % activity [8] | % activity [9] | % activity [10] |
| --- | --- | --- | --- | --- | --- | --- | --- | --- | --- | --- |
| HRRIKAWLKKIKALARQLGVAA (mammal) [MMI-0500] | 17% | 63% | 12% | 64% | 97% | 72% | 18% | 5% | 46% | 2% |
| YARAAARQARAKALNRQLGVA (mammal) [MMI-0200] | 99% | 88% | 95% | 97% | 110% | 93% | 97% | 101% | 74% | 82% |
